Source: the supplement of paper PMC9112550, “Optimization of the antimicrobial peptide Bac7 by deep mutational scanning” (BMC Biology, 2022)

Test system: Escherichia coli TOP10
Assay: shrunken log2 fold change of peptide-encoding DNA abundance (4.5 h post-induction vs induction); higher = less antimicrobial activity (less host growth inhibition)
Settings: time post-induction: 4.5 h; library: site-saturation at positions 5, 18, 19, 20
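Also: peptides expressed intracellularly from a pBAD plasmid library in pooled LB shake-flask culture, induced with 0.3% L-arabinose, DNA abundance read by NGS, three biological replicates, DESeq2 with apeglm shrinkage.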

RRIRHRPPRLPRPRPRPQMRPRP
shrunken log2 fold change: 0.209

RRIRPRPPRLPRPRPRPTVMPRP
shrunken log2 fold change: 0.0636

RRIRERPPRLPRPRPRPHQNPRP
shrunken log2 fold change: 0.0506

RRIRRRPPRLPRPRPRPAREPRP
shrunken log2 fold change: 0.925

RRIRERPPRLPRPRPRPYIVPRP
shrunken log2 fold change: 0.00789

RRIRIRPPRLPRPRPRPAAPPRP
shrunken log2 fold change: 0.47

RRIRPRPPRLPRPRPRPFWLPRP
shrunken log2 fold change: 0.115

RRIRIRPPRLPRPRPRPKWSPRP
shrunken log2 fold change: 0.107

RRIRVRPPRLPRPRPRPYKLPRP
shrunken log2 fold change: -0.745

RRIRDRPPRLPRPRPRPVASPRP
shrunken log2 fold change: 0.0264

RRIRARPPRLPRPRPRPLDFPRP
shrunken log2 fold change: 0.173

RRIRQRPPRLPRPRPRPLHQPRP
shrunken log2 fold change: -0.172

RRIRDRPPRLPRPRPRPRMFPRP
shrunken log2 fold change: -0.0535

RRIRQRPPRLPRPRPRPHTWPRP
shrunken log2 fold change: -0.206

RRIRDRPPRLPRPRPRPRDPPRP
shrunken log2 fold change: 2.7

RRIRSRPPRLPRPRPRPPGRPRP
shrunken log2 fold change: 0.482

RRIRSRPPRLPRPRPRPEQHPRP
shrunken log2 fold change: -0.101

RRIRGRPPRLPRPRPRPTGIPRP
shrunken log2 fold change: -0.0412

RRIRGRPPRLPRPRPRPEAGPRP
shrunken log2 fold change: 1.21

RRIRSRPPRLPRPRPRPRECPRP
shrunken log2 fold change: 0.71

RRIRFRPPRLPRPRPRPPPRPRP
shrunken log2 fold change: 1.84

RRIRGRPPRLPRPRPRPKMLPRP
shrunken log2 fold change: 0.509

RRIRYRPPRLPRPRPRPHTWPRP
shrunken log2 fold change: -0.0877

RRIRQRPPRLPRPRPRPIENPRP
shrunken log2 fold change: 0.219

RRIRDRPPRLPRPRPRPSLHPRP
shrunken log2 fold change: 0.0986

RRIRGRPPRLPRPRPRPEWNPRP
shrunken log2 fold change: 1.71

RRIRVRPPRLPRPRPRPEWSPRP
shrunken log2 fold change: 0.267

RRIRHRPPRLPRPRPRPMWEPRP
shrunken log2 fold change: -0.0441

RRIRERPPRLPRPRPRPLDHPRP
shrunken log2 fold change: -0.155

RRIRRRPPRLPRPRPRPWNPPRP
shrunken log2 fold change: -0.212

RRIRQRPPRLPRPRPRPSREPRP
shrunken log2 fold change: 0.111

RRIRIRPPRLPRPRPRPRDGPRP
shrunken log2 fold change: 0.575

RRIRNRPPRLPRPRPRPTMSPRP
shrunken log2 fold change: -0.453

RRIRYRPPRLPRPRPRPPIVPRP
shrunken log2 fold change: -0.756

RRIRPRPPRLPRPRPRPWNKPRP
shrunken log2 fold change: 0.163

RRIRCRPPRLPRPRPRPDRKPRP
shrunken log2 fold change: -0.458

RRIRMRPPRLPRPRPRPHVCPRP
shrunken log2 fold change: -0.107

RRIRDRPPRLPRPRPRPINYPRP
shrunken log2 fold change: 0.0585

RRIRIRPPRLPRPRPRPYGWPRP
shrunken log2 fold change: -0.0644

RRIRHRPPRLPRPRPRPQMFPRP
shrunken log2 fold change: -0.0824

RRIRFRPPRLPRPRPRPMDVPRP
shrunken log2 fold change: -0.0444

RRIRWRPPRLPRPRPRPEGYPRP
shrunken log2 fold change: 0.607

RRIRWRPPRLPRPRPRPHMQPRP
shrunken log2 fold change: -0.0363

RRIRPRPPRLPRPRPRPSLAPRP
shrunken log2 fold change: 0.185

RRIRPRPPRLPRPRPRPYESPRP
shrunken log2 fold change: -0.186

RRIRVRPPRLPRPRPRPSYVPRP
shrunken log2 fold change: -0.66

RRIRLRPPRLPRPRPRPRPYPRP
shrunken log2 fold change: -0.0267

RRIRIRPPRLPRPRPRPQRDPRP
shrunken log2 fold change: 0.0634

RRIRNRPPRLPRPRPRPCDHPRP
shrunken log2 fold change: -0.0208

RRIRHRPPRLPRPRPRPCTIPRP
shrunken log2 fold change: -0.0935

RRIRQRPPRLPRPRPRPDCRPRP
shrunken log2 fold change: 0.0305

RRIRGRPPRLPRPRPRPQDQPRP
shrunken log2 fold change: 0.531

RRIRARPPRLPRPRPRPTLGPRP
shrunken log2 fold change: 0.504

RRIRMRPPRLPRPRPRPWPKPRP
shrunken log2 fold change: 0.543

RRIRQRPPRLPRPRPRPLHMPRP
shrunken log2 fold change: -0.384

RRIRDRPPRLPRPRPRPQWAPRP
shrunken log2 fold change: 0.326

RRIRPRPPRLPRPRPRPLIFPRP
shrunken log2 fold change: -0.411

RRIRSRPPRLPRPRPRPECEPRP
shrunken log2 fold change: -0.0828

RRIRIRPPRLPRPRPRPRVGPRP
shrunken log2 fold change: 0.334

RRIRMRPPRLPRPRPRPVISPRP
shrunken log2 fold change: -0.28

RRIRLRPPRLPRPRPRPQVHPRP
shrunken log2 fold change: -0.184

RRIRYRPPRLPRPRPRPKETPRP
shrunken log2 fold change: -0.00674

RRIRFRPPRLPRPRPRPWTYPRP
shrunken log2 fold change: -0.0132

RRIRYRPPRLPRPRPRPNGRPRP
shrunken log2 fold change: -0.311

RRIRTRPPRLPRPRPRPKFQPRP
shrunken log2 fold change: 0.114

RRIRWRPPRLPRPRPRPDMCPRP
shrunken log2 fold change: 0.262

RRIRMRPPRLPRPRPRPRIYPRP
shrunken log2 fold change: -0.0363

RRIRPRPPRLPRPRPRPQEWPRP
shrunken log2 fold change: 0.0248

RRIRNRPPRLPRPRPRPRAQPRP
shrunken log2 fold change: 0.188

RRIRLRPPRLPRPRPRPMETPRP
shrunken log2 fold change: 0.483

RRIRKRPPRLPRPRPRPKGSPRP
shrunken log2 fold change: 0.436

RRIRHRPPRLPRPRPRPCSFPRP
shrunken log2 fold change: -0.309

RRIRSRPPRLPRPRPRPYNIPRP
shrunken log2 fold change: -0.579

RRIRLRPPRLPRPRPRPLHSPRP
shrunken log2 fold change: -0.0843

RRIRERPPRLPRPRPRPGWTPRP
shrunken log2 fold change: 0.0709

RRIRSRPPRLPRPRPRPFHMPRP
shrunken log2 fold change: -0.365

RRIRYRPPRLPRPRPRPCISPRP
shrunken log2 fold change: 0.0212

RRIRERPPRLPRPRPRPCWLPRP
shrunken log2 fold change: -0.0175

RRIRRRPPRLPRPRPRPCWFPRP
shrunken log2 fold change: 0.225

RRIRIRPPRLPRPRPRPCITPRP
shrunken log2 fold change: -0.0326

RRIRQRPPRLPRPRPRPVFEPRP
shrunken log2 fold change: 0.0624

RRIRIRPPRLPRPRPRPNGCPRP
shrunken log2 fold change: -0.0792

RRIRQRPPRLPRPRPRPLHVPRP
shrunken log2 fold change: -0.324

RRIRYRPPRLPRPRPRPKKTPRP
shrunken log2 fold change: -0.0419

RRIRSRPPRLPRPRPRPGCTPRP
shrunken log2 fold change: 0.22

RRIRWRPPRLPRPRPRPCIYPRP
shrunken log2 fold change: -0.162

RRIRSRPPRLPRPRPRPISSPRP
shrunken log2 fold change: -0.0591

RRIRQRPPRLPRPRPRPWINPRP
shrunken log2 fold change: -0.408

RRIRCRPPRLPRPRPRPTISPRP
shrunken log2 fold change: -0.381

RRIRFRPPRLPRPRPRPKQFPRP
shrunken log2 fold change: 0.058

RRIRARPPRLPRPRPRPDMYPRP
shrunken log2 fold change: -0.0823

RRIRWRPPRLPRPRPRPIWWPRP
shrunken log2 fold change: 0.314

RRIRMRPPRLPRPRPRPQVFPRP
shrunken log2 fold change: 0.281

RRIRLRPPRLPRPRPRPYRHPRP
shrunken log2 fold change: -0.628

RRIRPRPPRLPRPRPRPTLKPRP
shrunken log2 fold change: 0.114

RRIRSRPPRLPRPRPRPIMTPRP
shrunken log2 fold change: 0.164

RRIRLRPPRLPRPRPRPYWAPRP
shrunken log2 fold change: 0.216

RRIRSRPPRLPRPRPRPRIMPRP
shrunken log2 fold change: -0.105

RRIRERPPRLPRPRPRPENGPRP
shrunken log2 fold change: -0.025

RRIRSRPPRLPRPRPRPDDCPRP
shrunken log2 fold change: -0.0201

RRIRNRPPRLPRPRPRPGNDPRP
shrunken log2 fold change: -0.0364

RRIRNRPPRLPRPRPRPNQYPRP
shrunken log2 fold change: -0.712

RRIRWRPPRLPRPRPRPSYAPRP
shrunken log2 fold change: 0.0124

RRIRRRPPRLPRPRPRPRVFPRP
shrunken log2 fold change: 0.849

RRIRDRPPRLPRPRPRPCLVPRP
shrunken log2 fold change: 0.148

RRIRMRPPRLPRPRPRPKHDPRP
shrunken log2 fold change: 0.43

RRIRCRPPRLPRPRPRPNMSPRP
shrunken log2 fold change: -0.204

RRIRRRPPRLPRPRPRPQRMPRP
shrunken log2 fold change: 0.13

RRIRNRPPRLPRPRPRPLCWPRP
shrunken log2 fold change: -0.198

RRIRSRPPRLPRPRPRPGNVPRP
shrunken log2 fold change: -0.0126

RRIRARPPRLPRPRPRPITQPRP
shrunken log2 fold change: -0.0161

RRIRKRPPRLPRPRPRPAANPRP
shrunken log2 fold change: 0.647

RRIRMRPPRLPRPRPRPPVDPRP
shrunken log2 fold change: 1.14

RRIRCRPPRLPRPRPRPRNLPRP
shrunken log2 fold change: -0.222

RRIRCRPPRLPRPRPRPYVDPRP
shrunken log2 fold change: -0.232

RRIRARPPRLPRPRPRPSCGPRP
shrunken log2 fold change: 0.287

RRIRCRPPRLPRPRPRPHEGPRP
shrunken log2 fold change: -0.172

RRIRRRPPRLPRPRPRPIFKPRP
shrunken log2 fold change: 0.196

RRIRTRPPRLPRPRPRPIDSPRP
shrunken log2 fold change: -0.162

RRIRLRPPRLPRPRPRPYDWPRP
shrunken log2 fold change: -0.218

RRIRPRPPRLPRPRPRPDYQPRP
shrunken log2 fold change: -0.211

RRIRLRPPRLPRPRPRPCCCPRP
shrunken log2 fold change: -0.117

RRIRSRPPRLPRPRPRPVTNPRP
shrunken log2 fold change: -0.0242

RRIRLRPPRLPRPRPRPHMLPRP
shrunken log2 fold change: -0.264

RRIRRRPPRLPRPRPRPFSPPRP
shrunken log2 fold change: -0.173

RRIRHRPPRLPRPRPRPRGSPRP
shrunken log2 fold change: -0.00481

RRIRTRPPRLPRPRPRPFMIPRP
shrunken log2 fold change: -0.0265

RRIRKRPPRLPRPRPRPAVIPRP
shrunken log2 fold change: 0.076

RRIRWRPPRLPRPRPRPDEMPRP
shrunken log2 fold change: -0.0412

RRIRVRPPRLPRPRPRPNAVPRP
shrunken log2 fold change: -0.223

RRIRHRPPRLPRPRPRPFYNPRP
shrunken log2 fold change: -0.632

RRIRRRPPRLPRPRPRPIVSPRP
shrunken log2 fold change: -0.221

RRIRYRPPRLPRPRPRPYKMPRP
shrunken log2 fold change: -0.277

RRIRGRPPRLPRPRPRPKGGPRP
shrunken log2 fold change: 0.901

RRIRGRPPRLPRPRPRPHFEPRP
shrunken log2 fold change: 0.328

RRIRNRPPRLPRPRPRPDVRPRP
shrunken log2 fold change: -0.104

RRIRQRPPRLPRPRPRPVQIPRP
shrunken log2 fold change: 0.0268

RRIRTRPPRLPRPRPRPGEMPRP
shrunken log2 fold change: 0.136

RRIRKRPPRLPRPRPRPKYQPRP
shrunken log2 fold change: 0.0989

RRIRWRPPRLPRPRPRPLSSPRP
shrunken log2 fold change: -0.0482

RRIRQRPPRLPRPRPRPPGWPRP
shrunken log2 fold change: -0.0951

RRIRPRPPRLPRPRPRPEHIPRP
shrunken log2 fold change: 0.149

RRIRNRPPRLPRPRPRPYAAPRP
shrunken log2 fold change: -0.4

RRIRARPPRLPRPRPRPTKQPRP
shrunken log2 fold change: -0.148

RRIRARPPRLPRPRPRPTKWPRP
shrunken log2 fold change: 0.4

RRIRRRPPRLPRPRPRPQTVPRP
shrunken log2 fold change: -0.0201

RRIRERPPRLPRPRPRPQCNPRP
shrunken log2 fold change: 0.117

RRIRERPPRLPRPRPRPHKWPRP
shrunken log2 fold change: -0.0895

RRIRPRPPRLPRPRPRPHYYPRP
shrunken log2 fold change: -0.439

RRIRVRPPRLPRPRPRPVSEPRP
shrunken log2 fold change: 0.155
